# From the supplement of paper PMC12764529
# ± gives the half width of the 95% confidence interval.
# Tests used:
# [1] = folding stability dG unfold (combined trypsin and chymotrypsin); higher = more stable
# Procedure, shortened: (§1)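 Mini-proteins designed to be under 80 residues and free of cysteine were carried in a PA-tagged cDNA display construct and digested with trypsin and with chymotrypsin. Each protease was applied at 11 threefold-diluted concentrations, alongside a no-protease condition, before sequencing. K50 came from Bayesian fitting of the sequencing counts, and unfolding free energy was obtained by comparing it with a sequence-predicted unfolded-state K50 and a shared folded-state K50, for each protease separately or for both together. Designs were retained only if their AlphaFold2 dimer inter-PAE exceeded 15.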
# [2] = folding stability dG unfold from chymotrypsin proteolysis; higher = more stable
# Procedure, shortened: as §1
# [3] = folding stability dG unfold from trypsin proteolysis; higher = more stable
# Procedure, shortened: as §1
Sequence,folding stability dG unfold [1] [kcal/mol],folding stability dG unfold [2] [kcal/mol],folding stability dG unfold [3] [kcal/mol]
SAGGSAGGSAGGAVTTNKDVPLPGPFSIGTVTVSPPDPATPVVTFNSYEGNGPVTLTVPVSAGGSAGGSAGG [r11_1013_JUSTAS],0.921 ± 0.04,0.321 ± 0.11,1.24 ± 0.015
SAGGSAGGSAGGDENDYYMVEIPIWRRNENGGWEPIFPIPIMVPKGAPKDVAKDILNNLSAGGSAGGSAGGS [r10_470_TrROS],0.382 ± 0.085,0.324 ± 0.12,0.361 ± 0.1
SAGGSAGGSAGGDGEDGKPKPEPKIKIKIEVESVRNPNGFLIVTYRIPALGIWITIIINSAGGSAGGSAGGS [r10_160_TrROS],4.6 ± 0.39,4.91 ± 0.24,3.03 ± 0.15
SAGGSAGGSAGGDGIVVPVDEAVGLIKELGLKVVGVFEHPGGPPAVLFELPDGRLLLAESAGGSAGGSAGGS [r10_210_TrMRF],0.603 ± 0.047,0.792 ± 0.042,0.381 ± 0.045
SAGGSAGGSAGGDITIDTEQMPNGWHTVKVRLPNGKPIAPVPMPPGMTPEEAVKRALDRLSAGGSAGGSAGG [r7_444_TrROS],0.0336 ± 0.12,-0.407 ± 0.25,0.0871 ± 0.065
SAGGSAGGSAGGDKNDLSPGATISTYTNPGSFTVTLPTGETVTLPKTVTTTVTFFDSTNSAGGSAGGSAGGS [r10_643_JUSTAS],0.227 ± 0.08,0.104 ± 0.14,0.254 ± 0.072
SAGGSAGGSAGGDLLRDLPGLELRIETVTVTERYFDEDGELVEEREETVTRIELRRPGEESAGGSAGGSAGG [r7_614_TrROS_Hall],1.75 ± 0.2,2.15 ± 0.1,0.383 ± 0.2
SAGGSAGGSAGGDNLMIMIEIEPVKTETRMDPDGKMETRTEYRIKIEIIPPPNPDDPENNSAGGSAGGSAGG [r7_523_TrROS],2.28 ± 0.17,2.63 ± 0.049,1.55 ± 0.11
SAGGSAGGSAGGDNRLPIPVKTPVVVVPADEAREEIRATLPPDAYRVEEERGDYVTISLGSAGGSAGGSAGG [r7_670_JUSTAS],0.847 ± 0.049,1.05 ± 0.022,0.481 ± 0.044
SAGGSAGGSAGGDNWKIGIDIIPIRFTFEMTMKDGGKPRPMRMEFEVTIIVIKITPPGDSAGGSAGGSAGGS [r10_118_TrROS],4.89 ± 0.11,5.1 ± 0.079,3.5 ± 0.1
SAGGSAGGSAGGDPDERIPIKIEMWHPNKPYEHEFPVGMDLSDIADPFASDGFMVRIEISAGGSAGGSAGGS [r10_540_TrROS],1.05 ± 0.14,1.26 ± 0.07,0.795 ± 0.058
SAGGSAGGSAGGDPNWVTVTIMIKVPPGDKPIEIEIPNGIKVEYYPFPDDGYLIFKITVRSAGGSAGGSAGG [r7_796_TrROS],3.02 ± 0.23,3.11 ± 0.16,2.78 ± 0.16
SAGGSAGGSAGGDTVEIELRAFFPETGLIITPTITIDKNGKIISINPRIEPLPPPLEGILSAGGSAGGSAGG [r7_135_TrMRF],0.0659 ± 0.23,-0.253 ± 0.1,0.341 ± 0.069
SAGGSAGGSAGGDWITFTNPGGYKVTVEVDENGWMRVEVYPNGKPQEVPMPLEELKKNAPSAGGSAGGSAGG [r7_178_TrROS],0.423 ± 0.19,0.868 ± 0.17,-0.451 ± 0.18
SAGGSAGGSAGGEAKIKLEVEETPGGLVIRAEVEVDGKLYEVELRIKGDEIVEVKIKPLDSAGGSAGGSAGG [r7_187_TrROS_Hall],2.5 ± 0.17,2.62 ± 0.2,2.13 ± 0.097
SAGGSAGGSAGGEDPNLKSKTITKKVEKGKLDSSKNITDSSGNTSIITVENNTITITIVSSAGGSAGGSAGG [r7_97_JUSTAS],1.03 ± 0.2,1.66 ± 0.049,-0.215 ± 0.31
SAGGSAGGSAGGEEKTEEEKRKEERLKPAPPLVLELDVEVDGKLYRFRLVNGKLEIEELPSAGGSAGGSAGG [r7_156_TrROS_Hall],2.56 ± 0.11,2.98 ± 0.038,1.71 ± 0.047
SAGGSAGGSAGGEIKPGETITNLKVKIRNKKTGKTITVTLKPGETAEDLAKKLGVEIEPSAGGSAGGSAGGS [r10_202_TrROS_Hall],0.87 ± 0.1,0.881 ± 0.097,0.622 ± 0.12
SAGGSAGGSAGGEIVIPVDGKLVVIKLKNGKKITVPVEDLKELLKKLGIKNAKIEVVPAKSAGGSAGGSAGG [r7_235_TrROS_Hall],2.56 ± 0.17,2.82 ± 0.049,1.8 ± 0.088
SAGGSAGGSAGGEKVVVPPPEVELRLERREDGYVRLYARNKDGEWEEVAVFKVSPEELELSAGGSAGGSAGG [r7_659_TrROS_Hall],3.37 ± 0.32,3.77 ± 0.13,3.09 ± 0.19
SAGGSAGGSAGGELELEVEVDGVLVRARVELDPETDELKIELEVRPLPPPEVVFLPEDRSAGGSAGGSAGGS [r10_582_TrROS_Hall],0.489 ± 0.1,0.504 ± 0.029,0.576 ± 0.072

Sequence,folding stability dG unfold [1] [kcal/mol],folding stability dG unfold [2] [kcal/mol],folding stability dG unfold [3] [kcal/mol]
SAGGSAGGSAGGEMRLRISWNHPNGQPQVIEFPVGDIKEFLKKLGIDNIPPDKLTNIEPYSAGGSAGGSAGG [r7_745_TrROS],1.36 ± 0.094,1.37 ± 0.092,1.25 ± 0.039
SAGGSAGGSAGGENPVDFKARVELLSGVVELTYTNEDGEPTTTLEEVVALKIEIEPSNNSAGGSAGGSAGGS [r10_1212_TrMRF],1.65 ± 0.073,1.81 ± 0.062,1.23 ± 0.046
SAGGSAGGSAGGEPEVEITIEVEERDGELVVRVTARFKDTDETITVEMTLEEVEALLKASAGGSAGGSAGGS [r10_1187_TrROS_Hall],2.37 ± 0.077,2.17 ± 0.061,2.54 ± 0.061
SAGGSAGGSAGGERVLVMVFKFDPEDNDMKIKDVVTFPNPEEAREEAEKDGYMVMVIPLSAGGSAGGSAGGS [r10_657_TrROS],1.47 ± 0.2,1.85 ± 0.12,0.995 ± 0.048
SAGGSAGGSAGGETVTIVDKKTNKTITYNKETNEFTITTKNGKKKTIKVDSPEEALKALSAGGSAGGSAGGS [r10_849_TrROS_Hall],0.89 ± 0.12,0.731 ± 0.1,0.964 ± 0.02
SAGGSAGGSAGGEVKILRVEEFEDGVVRVFVEGDDPVLVIELGPDGVILSIEEVDSSELSAGGSAGGSAGGS [r10_211_TrMRF],0.781 ± 0.085,0.562 ± 0.034,1.04 ± 0.044
SAGGSAGGSAGGEVVVVPLPDGSYVVALPDGTVVVYNPETGRWEERRSEDVVIAPGRPDESAGGSAGGSAGG [r7_656_TrMRF],2.4 ± 0.03,2.51 ± 0.031,2.09 ± 0.061
SAGGSAGGSAGGEYEIVKIEKVKNENGELYYKMIIKDKKTNKEIEIYMSLEELKKLKPKSAGGSAGGSAGGS [r10_326_TrROS_Hall],3.24 ± 0.18,3.85 ± 0.16,2.05 ± 0.047
SAGGSAGGSAGGFIARIEYPDGNTRTINPGMSLDELRNLPPDQIRRVEVEPVPPVPDDEKSAGGSAGGSAGG [r7_190_TrROS],0.499 ± 0.079,0.723 ± 0.023,-0.225 ± 0.12
SAGGSAGGSAGGFNIKLDVEIDPENYVIKNKLEVRDGGEERRFEMWIPIRVPPADPDDPSAGGSAGGSAGGS [r10_1049_TrROS],0.852 ± 0.21,1.39 ± 0.27,-0.135 ± 0.29
SAGGSAGGSAGGFYDPNGKWRIKIKPEVFEFPNYRFIKMKIEVDGRPIMEMPMLIPPNDSAGGSAGGSAGGS [r10_628_TrROS],2.73 ± 0.34,2.45 ± 0.16,3.41 ± 0.31
SAGGSAGGSAGGGELKYRTLTVDLPVDDPDGRKLPRRLVITFPASNPELAEAFLKALGYSAGGSAGGSAGGS [r10_1062_TrMRF],1.52 ± 0.034,1.75 ± 0.021,1.11 ± 0.012
SAGGSAGGSAGGGFYVKEIKGVKFGDKTLYIIRVYDDKGNEVFDVVAPPEVLKNLPPEVLSAGGSAGGSAGG [r7_263_TrMRF],1.52 ± 0.045,1.79 ± 0.037,1.04 ± 0.015
SAGGSAGGSAGGGKVTAVVTFTGPDGSKVVLAFHPDGSVTVRYFDPNGELVGEKTFAGAGSAGGSAGGSAGG [r7_544_TrMRF],4.27 ± 0.14,4.56 ± 0.1,3.2 ± 0.19
SAGGSAGGSAGGGLASEPVEIVEILSVTLVPEANVEVVTVKLPNPGELVTVPASAVPPGLSAGGSAGGSAGG [r7_304_JUSTAS],1.69 ± 0.085,1.16 ± 0.048,2.07 ± 0.13
SAGGSAGGSAGGGMPSVTVTPVTLTVPTEVLVDGGPLLREREVRLTVITYPYTNTVVVDSAGGSAGGSAGGS [r10_533_JUSTAS],0.23 ± 0.099,0.494 ± 0.16,-0.474 ± 0.2
SAGGSAGGSAGGGMRTVTTVSSFTFEKNGGEKFVTTTVVVPLYVPPRVFPPPENIELLLLSAGGSAGGSAGG [r17_454_JUSTAS],1.61 ± 0.26,1.36 ± 0.27,2.45 ± 0.33
SAGGSAGGSAGGGMSIEEVKAKIEEEVGVEVSIEKVSGNTYKITLPKNNETYTIKIPKKSAGGSAGGSAGGS [r10_1032_JUSTAS],0.373 ± 0.25,-0.126 ± 0.3,0.396 ± 0.062
SAGGSAGGSAGGGMTTTTETTTTTFPTNNLTTTTTTTTTLETSTGTTLSSTSTTTVTASSAGGSAGGSAGGS [r10_469_JUSTAS],1.2 ± 0.072,0.234 ± 0.12,1.96 ± 0.18
SAGGSAGGSAGGGMVLKTEPVVITSTSTAPTEDGKWITTTSTLVVTKELILPSTLPGLLSAGGSAGGSAGGS [r10_1133_JUSTAS],0.34 ± 0.096,0.276 ± 0.11,0.173 ± 0.028
SAGGSAGGSAGGGNMTITVMIPIEIPVFKYDGGKPEFEPFPIYIMVEVTVPEGAPLEEFSAGGSAGGSAGGS [r10_633_TrROS],1.79 ± 0.068,1.49 ± 0.027,2.1 ± 0.076
